Experimental data as given in US20040253646A1, “Pre-mrna splicing screening assay” (priority 2001, published 2004).
“Also recorded” adds a separate entry of the source.

What was measured:
PLRG1 [1] = target: T1, PLRG1 (Homo sapiens, UniProt O43660); assay: GST pull-down protein binding assay, CDC5L mutants with GST-PLRG1; conditions: about 0.2 nmole GST-PLRG1, FIG. 4
T1 construct: using full-length GST-PLRG1 in pull-down experiments with each of the respective CDC5L truncation mutants; made in house; host or cells: E. coli BL21(DE3), vector pGEX-4T1
T1 sequence (O43660 1-514): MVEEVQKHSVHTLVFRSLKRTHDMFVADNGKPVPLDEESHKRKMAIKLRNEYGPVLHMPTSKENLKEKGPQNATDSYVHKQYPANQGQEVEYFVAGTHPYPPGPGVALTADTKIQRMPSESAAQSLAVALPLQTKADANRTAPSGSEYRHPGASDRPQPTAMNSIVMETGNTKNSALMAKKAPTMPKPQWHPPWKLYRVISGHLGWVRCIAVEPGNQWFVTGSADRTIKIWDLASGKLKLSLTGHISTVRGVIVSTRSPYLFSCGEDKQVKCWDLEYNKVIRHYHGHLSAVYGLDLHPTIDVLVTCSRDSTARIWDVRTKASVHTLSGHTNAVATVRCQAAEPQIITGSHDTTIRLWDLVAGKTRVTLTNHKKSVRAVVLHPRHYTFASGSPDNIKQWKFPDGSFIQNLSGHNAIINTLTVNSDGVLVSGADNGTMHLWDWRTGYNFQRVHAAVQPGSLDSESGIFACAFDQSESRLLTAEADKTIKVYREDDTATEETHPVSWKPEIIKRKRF
Excerpt: (§1) The in vitro transcription and translation experiments were done with the T7 or SP6 RNA polymerase transcription/translation systems that used rabbit reticulocyte lysate (TNT systems, Promega) and L-[^35S] methionine (Amersham, AG1094) to produce [^35S] labelled proteins according to the manufacturer's recommendations. Aliquots of these reactions were used for protein-protein interaction assays as described below.
(§2) About 0.2 nmole of the appropriate GST-fusion recombinant protein was mixed with an equimolar amount of hexahistidine tagged bacterially expressed protein or 8-10 μl of the in vitro translation reaction above and incubated in binding buffer (250 mM NaCl, 50 mM HEPES pH 7:9, 2% BSA) at room temperature for 15 minutes. The binding reaction was then added to 25 μl of glutathione sepharose beads or antibody bound protein-G sepharose and mixed at 4° C. for 1-2 hrs. The beads were washed 3-4 times in 1 ml of PBS/0.1% Triton X-100 and resuspended in 25 μl 2×SDS PAGE loading dye before heating at 70° C. for 10 minutes or 95° C. for 5 minutes. Bound proteins were separated on a 10% or 12% SDS PAGE gel after which the gel was fixed in 50% methanol/10% acetic acid for 30 minutes. The fixed gel was then soaked in a fluorographic reagent (Amplify, Amersham) for 30 minutes before drying. Protein bands were detected by autoradiography at −80° C. after 4-16 hrs. For antibody probing, the gels containing proteins from the antibody beads were treated as described above in the SDS-PAGE and Western blotting section.
(§3) Point mutations generating stop codons were inserted into the cDNAs at approximately 100 amino acids intervals by PCR using the QuikChange site directed mutagenesis kit (Stratagene) according to the manufacturer's instructions. The cDNAs were sequenced to confirm the presence of the appropriate mutations. Regions of the cDNAs involved in binding and overlapping regions were subcloned into the vectors pGEX-4T1 (Amersham-Pharmacia) or pET-30a (Novagen) for use in E. coli expression and protein-protein interaction assays.

PLRG1 [2] = target: T2, PLRG1 (Homo sapiens, UniProt O43660); assay: as above; conditions: in vitro translated (FIG. 6A) or bacterially expressed His-tagged (FIG. 6B, 6C) proteins
T2 construct: using full-length GST-PLRG1 in pull-down experiments with each of the respective CDC5L truncation mutants; made in house; host or cells: E. coli BL21(DE3), vector pGEX-4T1
T2 sequence (O43660 257-396 limits assumed): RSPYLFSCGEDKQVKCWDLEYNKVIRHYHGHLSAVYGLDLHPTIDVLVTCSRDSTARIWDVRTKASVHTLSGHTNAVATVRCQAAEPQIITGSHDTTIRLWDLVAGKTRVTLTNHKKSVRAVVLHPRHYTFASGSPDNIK
Excerpt: as §1, §2, §3

B1: ΔCDC5Lg: CDC5L carboxyl terminal amino acids 706-800, mutant protein from region g (protein, UniProt Q99459 706-800, looked up, fragment)
chain: EAKRAAKMEKKMKILLGGYQSRAMGLMKQLNDLWDQIEQAHLELRTFEELKKHEDSAIPRRLECLKEDVQRQQEREKELQHRYADLLLEKETLKS
modifications: His6 tag
notes: CDC5L carboxyl terminal amino acids 706-800, mutant protein from region g
- pull-down of in vitro translated CDC5L mutants by full-length GST-PLRG1 (PLRG1 [1]): pulled down less efficiently
- pull-down of CDC5L mutants by GST-ΔPLRG1f (amino acids 257-396) (PLRG1 [2]): will interact; also recorded: will pull-down
